B1: glmS ribozyme (parent)
chain: AUAAAAGCGCCAGAACUACAGAAAUGUAGUUGACGAGGAGGAGGUUUAUCGAAUUUUCGGCGGAUGCCUCCAAA

Conditions in all cases: with glucosamine-6-phosphate
In data set [1] the parent is B1. As to the kind of experiment: kcat; higher = faster cleavage; RNA array. An outline of the steps: (§1)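 E. coli RNA polymerase transcribed barcoded ribozyme variants in situ on sequenced MiSeq chips, which were tracked via a hybridised Cy3 probe at 37 °C. Tiles were imaged over ~14 h after glucosamine-6-phosphate (40 μM to 10 mM) in HEPES/KCl/Mg(OAc)2 buffer was flowed in. Normalised per-tile medians were fit to one- or two-exponential decays for kobs, and kcat and KM came from weighted Michaelis–Menten fits.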

The variants in data set [2] derive from B1. In words: KM; higher = weaker cofactor use; RNA array. An outline of the steps: as §1
The variants in data set [3] derive from B1. In words: self-cleavage kobs at 40 uM GlcN6P; higher = faster cleavage; RNA array. An outline of the steps:
as §1

The variants in data set [4] derive from B1. In words: self-cleavage kobs at 160 uM GlcN6P; higher = faster cleavage; RNA array. The gist of the method: as §1
In data set [5] the parent is B1. In words: self-cleavage kobs at 640 uM GlcN6P; higher = faster cleavage; RNA array. The gist of the method:
as §1

Data set [6] covers variants of B1. In words: self-cleavage kobs at 2500 uM GlcN6P; higher = faster cleavage; RNA array. The gist of the method:
as §1

The variants in data set [7] derive from B1. In words: self-cleavage kobs at 10000 uM GlcN6P; higher = faster cleavage; RNA array. An outline of the steps: as §1

± gives the standard error. For part of these data: This sample holds only a part of the variants without activity.

A15G G40C: the kcat with glucosamine-6-phosphate [1] is 0.00522 ± 0.0011 s⁻¹. The KM with glucosamine-6-phosphate [2] turned out to be 1800 ± 590 µM. The “self-cleavage kobs at 40 uM GlcN6P” value in the data set with glucosamine-6-phosphate [3] was 0.000151 ± 1.6e-05 s⁻¹. Further, the “self-cleavage kobs at 160 uM GlcN6P” value with glucosamine-6-phosphate [4] stood at 0.000354 ± 6.3e-05 s⁻¹. For the same variant, the “self-cleavage kobs at 640 uM GlcN6P” value with glucosamine-6-phosphate [5] is 0.00122 ± 0.00017 s⁻¹. Moreover, the “self-cleavage kobs at 2500 uM GlcN6P” value with glucosamine-6-phosphate [6] came out at 0.0027 ± 0.00028 s⁻¹. For the same variant, in the data set with glucosamine-6-phosphate [7], the “self-cleavage kobs at 10000 uM GlcN6P” value was determined as 0.00506 ± 0.00049 s⁻¹.

For C16G A52G, the kcat with glucosamine-6-phosphate [1] was found to be 0.000339 ± 0.0001 s⁻¹. For the same variant, the “self-cleavage kobs at 640 uM GlcN6P” value with glucosamine-6-phosphate [5] is 7.43e-05 ± 2.3e-05 s⁻¹. In addition, the “self-cleavage kobs at 2500 uM GlcN6P” value in the data set with glucosamine-6-phosphate [6] is 0.000119 ± 1.9e-05 s⁻¹. The “self-cleavage kobs at 10000 uM GlcN6P” value with glucosamine-6-phosphate [7] was 0.000262 ± 4.1e-05 s⁻¹.

On to U46C C58U, for which the turnover number (kcat) with glucosamine-6-phosphate [1] came out at 3.35e-05 ± 5.4e-07 s⁻¹. For the same variant, in the data set with glucosamine-6-phosphate [2], the Michaelis constant (KM) came to 1400 ± 110 µM. Also, the “self-cleavage kobs at 40 uM GlcN6P” value with glucosamine-6-phosphate [3] is less than 1e-05 s⁻¹. In addition, the “self-cleavage kobs at 10000 uM GlcN6P” value with glucosamine-6-phosphate [7] is 2.93e-05 ± 9e-06 s⁻¹.

G35A C71G: the kcat with glucosamine-6-phosphate [1] is less than 1e-05 s⁻¹. For the same variant, the “self-cleavage kobs at 160 uM GlcN6P” value with glucosamine-6-phosphate [4] was less than 1e-05 s⁻¹. Besides, the “self-cleavage kobs at 640 uM GlcN6P” value with glucosamine-6-phosphate [5] was less than 1e-05 s⁻¹.

For A6G C67U, the kcat with glucosamine-6-phosphate [1] was 0.000111 ± 4.4e-05 s⁻¹. Further, in the data set with glucosamine-6-phosphate [7], the “self-cleavage kobs at 10000 uM GlcN6P” value worked out at 8.08e-05 ± 7.3e-06 s⁻¹.

In the case of C11U A52G, in the data set with glucosamine-6-phosphate [1], the kcat was found to be 0.000164 ± 8e-06 s⁻¹. In addition, the KM with glucosamine-6-phosphate [2] was determined as 1690 ± 270 µM. Also, in the data set with glucosamine-6-phosphate [5], the “self-cleavage kobs at 640 uM GlcN6P” value was 4.15e-05 ± 1e-05 s⁻¹. Further, the “self-cleavage kobs at 2500 uM GlcN6P” value in the data set with glucosamine-6-phosphate [6] amounted to 0.000109 ± 1.8e-05 s⁻¹. Besides, the “self-cleavage kobs at 10000 uM GlcN6P” value with glucosamine-6-phosphate [7] worked out at 0.000139 ± 1.1e-05 s⁻¹.

Consider G66U U69A, for which the kcat with glucosamine-6-phosphate [1] was determined as 0.000163 ± 3e-05 s⁻¹. In the data set with glucosamine-6-phosphate [4], the “self-cleavage kobs at 160 uM GlcN6P” value came out at 7.46e-05 ± 3e-05 s⁻¹. For the same variant, the “self-cleavage kobs at 640 uM GlcN6P” value with glucosamine-6-phosphate [5] is 8.9e-05 ± 1.5e-05 s⁻¹. Also, in the data set with glucosamine-6-phosphate [6], the “self-cleavage kobs at 2500 uM GlcN6P” value stood at 0.000118 ± 2.1e-05 s⁻¹. In the data set with glucosamine-6-phosphate [7], the “self-cleavage kobs at 10000 uM GlcN6P” value was determined as 0.000191 ± 3.2e-05 s⁻¹.

Consider A33U U46C, for which, in the data set with glucosamine-6-phosphate [1], the turnover number (kcat) was 2.23e-05 ± 3.7e-06 s⁻¹.

With A36U G37A, the kcat in the data set with glucosamine-6-phosphate [1] is 1.19e-05 ± 3e-06 s⁻¹.

In the case of U30G C67A, the kcat with glucosamine-6-phosphate [1] amounted to 0.00145 ± 0.00047 s⁻¹. Besides, the “self-cleavage kobs at 40 uM GlcN6P” value in the data set with glucosamine-6-phosphate [3] came to 6.13e-05 ± 1.3e-05 s⁻¹. For the same variant, in the data set with glucosamine-6-phosphate [4], the “self-cleavage kobs at 160 uM GlcN6P” value was determined as 0.000175 ± 3.3e-05 s⁻¹. Further, in the data set with glucosamine-6-phosphate [5], the “self-cleavage kobs at 640 uM GlcN6P” value amounted to 0.000561 ± 9.1e-05 s⁻¹. Further, in the data set with glucosamine-6-phosphate [6], the “self-cleavage kobs at 2500 uM GlcN6P” value came to 0.00063 ± 0.00017 s⁻¹. The “self-cleavage kobs at 10000 uM GlcN6P” value with glucosamine-6-phosphate [7] was determined as 0.00188 ± 0.00029 s⁻¹.

On to G51A G62A, for which, in the data set with glucosamine-6-phosphate [1], the catalytic constant (kcat) is less than 1e-05 s⁻¹. The “self-cleavage kobs at 40 uM GlcN6P” value with glucosamine-6-phosphate [3] was less than 1e-05 s⁻¹.

In the case of A14U G66A, the catalytic constant (kcat) with glucosamine-6-phosphate [1] is 0.00402 ± 0.0012 s⁻¹. The KM in the data set with glucosamine-6-phosphate [2] came out at 2120 ± 870 µM. For the same variant, in the data set with glucosamine-6-phosphate [3], the “self-cleavage kobs at 40 uM GlcN6P” value was determined as 0.000107 ± 1.8e-05 s⁻¹. The “self-cleavage kobs at 160 uM GlcN6P” value in the data set with glucosamine-6-phosphate [4] was determined as 0.000254 ± 3.9e-05 s⁻¹. Also, in the data set with glucosamine-6-phosphate [5], the “self-cleavage kobs at 640 uM GlcN6P” value is 0.00104 ± 0.00029 s⁻¹. Also, in the data set with glucosamine-6-phosphate [6], the “self-cleavage kobs at 2500 uM GlcN6P” value came out at 0.00172 ± 0.0003 s⁻¹. In addition, the “self-cleavage kobs at 10000 uM GlcN6P” value with glucosamine-6-phosphate [7] amounted to 0.00403 ± 0.00059 s⁻¹.

As for G29C G66C, in the data set with glucosamine-6-phosphate [1], the kcat amounted to 2.22e-05 ± 9.6e-06 s⁻¹.

As for A14C G37A, in the data set with glucosamine-6-phosphate [1], the kcat is 0.000437 ± 0.00013 s⁻¹. In the data set with glucosamine-6-phosphate [4], the “self-cleavage kobs at 160 uM GlcN6P” value was found to be 6.1e-05 ± 1.7e-05 s⁻¹. The “self-cleavage kobs at 640 uM GlcN6P” value with glucosamine-6-phosphate [5] was 8.51e-05 ± 1.4e-05 s⁻¹. The “self-cleavage kobs at 2500 uM GlcN6P” value with glucosamine-6-phosphate [6] turned out to be 0.000201 ± 3e-05 s⁻¹. Also, the “self-cleavage kobs at 10000 uM GlcN6P” value with glucosamine-6-phosphate [7] stood at 0.000388 ± 6.8e-05 s⁻¹.

As for G59A G63U, the kcat with glucosamine-6-phosphate [1] is less than 1e-05 s⁻¹. For the same variant, in the data set with glucosamine-6-phosphate [2], the KM turned out to be 294 ± 68 µM. Also, the “self-cleavage kobs at 40 uM GlcN6P” value in the data set with glucosamine-6-phosphate [3] was less than 1e-05 s⁻¹. In addition, the “self-cleavage kobs at 2500 uM GlcN6P” value in the data set with glucosamine-6-phosphate [6] is less than 1e-05 s⁻¹.

For the variant A15U C16G G59C G60A C67U, the turnover number (kcat) with glucosamine-6-phosphate [1] was less than 1e-05 s⁻¹.

Consider U57G U69C, for which, in the data set with glucosamine-6-phosphate [1], the kcat turned out to be 1.77e-05 ± 7.2e-06 s⁻¹.

As for C67U, the turnover number (kcat) with glucosamine-6-phosphate [1] amounted to 0.0229 ± 0.0033 s⁻¹. Further, the KM with glucosamine-6-phosphate [2] is 1910 ± 390 µM. Moreover, the “self-cleavage kobs at 40 uM GlcN6P” value with glucosamine-6-phosphate [3] stood at 0.000527 ± 1.7e-05 s⁻¹. In the data set with glucosamine-6-phosphate [4], the “self-cleavage kobs at 160 uM GlcN6P” value stood at 0.0016 ± 0.00012 s⁻¹. Moreover, the “self-cleavage kobs at 640 uM GlcN6P” value with glucosamine-6-phosphate [5] is 0.00529 ± 0.0002 s⁻¹. Moreover, in the data set with glucosamine-6-phosphate [6], the “self-cleavage kobs at 2500 uM GlcN6P” value stood at 0.0117 ± 0.00055 s⁻¹. Further, the “self-cleavage kobs at 10000 uM GlcN6P” value with glucosamine-6-phosphate [7] amounted to 0.0215 ± 0.00087 s⁻¹.

In the case of C50G U54C, the kcat with glucosamine-6-phosphate [1] stood at 5.48e-05 ± 1.1e-05 s⁻¹. In the data set with glucosamine-6-phosphate [4], the “self-cleavage kobs at 160 uM GlcN6P” value was determined as 5.92e-05 ± 2.5e-05 s⁻¹. The “self-cleavage kobs at 2500 uM GlcN6P” value with glucosamine-6-phosphate [6] turned out to be 5.87e-05 ± 1.8e-05 s⁻¹.

As for C34U C50A, in the data set with glucosamine-6-phosphate [1], the catalytic constant (kcat) amounted to 1.45e-05 ± 5.7e-06 s⁻¹.

Consider U55G A64C, for which the kcat in the data set with glucosamine-6-phosphate [1] was 0.000152 ± 1.4e-05 s⁻¹. The Michaelis constant (KM) with glucosamine-6-phosphate [2] was 1210 ± 350 µM. The “self-cleavage kobs at 640 uM GlcN6P” value with glucosamine-6-phosphate [5] is 5.93e-05 ± 1.7e-05 s⁻¹. Besides, the “self-cleavage kobs at 2500 uM GlcN6P” value in the data set with glucosamine-6-phosphate [6] was 9.39e-05 ± 1.5e-05 s⁻¹. Besides, in the data set with glucosamine-6-phosphate [7], the “self-cleavage kobs at 10000 uM GlcN6P” value came to 0.000143 ± 2e-05 s⁻¹.
